Measurements as given in the Human Domainome abundance scans (Beltran et al. 2025).
± gives the uncertainty stated by the source.

B1: Myocardin, residues 363 to 406; numbered along this chain, Q8IZQ8 (parent)
chain: KPGPLPPNLDDLKVSELRQQLRIRGLPVSGTKTALMDRLRPFQD

Variants of: B1
Assay: abundance fitness (aPCA) (normalised: wild type 0, dead -1); higher = more abundant; growth selection in yeast, the domain comes from the species named
Conditions: Homo sapiens

Variant | abundance fitness
KPGPLTPNLDDLKVSELRQQLRIRGLPVSGTKTALMDRLRPFQD | -0.197 ± 0.14
KPGPLIPNLDDLKVSELRQQLRIRGLPVSGTKTALMDRLRPFQD | -0.361 ± 0.12
KPGPLSPNLDDLKVSELRQQLRIRGLPVSGTKTALMDRLRPFQD | -0.095 ± 0.078
KPGPLLPNLDDLKVSELRQQLRIRGLPVSGTKTALMDRLRPFQD | -0.26 ± 0.091
KPGPLAPNLDDLKVSELRQQLRIRGLPVSGTKTALMDRLRPFQD | -0.02 ± 0.094
KPGPLDPNLDDLKVSELRQQLRIRGLPVSGTKTALMDRLRPFQD | -0.195 ± 0.12
KPGPLGPNLDDLKVSELRQQLRIRGLPVSGTKTALMDRLRPFQD | -0.153 ± 0.057
KPGPLQPNLDDLKVSELRQQLRIRGLPVSGTKTALMDRLRPFQD | -0.267 ± 0.073
KPGPLMPNLDDLKVSELRQQLRIRGLPVSGTKTALMDRLRPFQD | -0.135 ± 0.15
KPGPLVPNLDDLKVSELRQQLRIRGLPVSGTKTALMDRLRPFQD | -0.133 ± 0.065
KPGPLEPNLDDLKVSELRQQLRIRGLPVSGTKTALMDRLRPFQD | -0.131 ± 0.11
KPGPLWPNLDDLKVSELRQQLRIRGLPVSGTKTALMDRLRPFQD | -0.484 ± 0.085
KPGPLFPNLDDLKVSELRQQLRIRGLPVSGTKTALMDRLRPFQD | -0.356 ± 0.42
KPGPLNPNLDDLKVSELRQQLRIRGLPVSGTKTALMDRLRPFQD | -0.34 ± 0.16
KPGPLPPNLDDCKVSELRQQLRIRGLPVSGTKTALMDRLRPFQD | -0.499 ± 0.13
KPGPLPPNLDDKKVSELRQQLRIRGLPVSGTKTALMDRLRPFQD | -0.284 ± 0.35
KPGPLPPNLDDFKVSELRQQLRIRGLPVSGTKTALMDRLRPFQD | 0.053 ± 0.25
KPGPLPPNLDDNKVSELRQQLRIRGLPVSGTKTALMDRLRPFQD | -0.507 ± 0.21
KPGPLPPNLDDAKVSELRQQLRIRGLPVSGTKTALMDRLRPFQD | -0.425 ± 0.061
KPGPLPPNLDDEKVSELRQQLRIRGLPVSGTKTALMDRLRPFQD | -0.369 ± 0.088

Variant | abundance fitness
KPGPLPPNLDDGKVSELRQQLRIRGLPVSGTKTALMDRLRPFQD | -0.638 ± 0.069
KPGPLPPNLDDHKVSELRQQLRIRGLPVSGTKTALMDRLRPFQD | -0.614 ± 0.14
KPGPLPPNLDDDKVSELRQQLRIRGLPVSGTKTALMDRLRPFQD | -0.429 ± 0.09
KPGPLPPNLDFLKVSELRQQLRIRGLPVSGTKTALMDRLRPFQD | -0.175 ± 0.16
KPGPLPPNLDTLKVSELRQQLRIRGLPVSGTKTALMDRLRPFQD | 0.135 ± 0.1
KPGPLPPNLDVLKVSELRQQLRIRGLPVSGTKTALMDRLRPFQD | 0 ± 0.087
KPGPLPPNLDELKVSELRQQLRIRGLPVSGTKTALMDRLRPFQD | -0.082 ± 0.093
KPGPLPPNLDYLKVSELRQQLRIRGLPVSGTKTALMDRLRPFQD | -0.183 ± 0.14
KPGPLPPNLDLLKVSELRQQLRIRGLPVSGTKTALMDRLRPFQD | 0.009 ± 0.072
KPGPLPPNLDNLKVSELRQQLRIRGLPVSGTKTALMDRLRPFQD | -0.004 ± 0.12
KPGPLPPNLDSLKVSELRQQLRIRGLPVSGTKTALMDRLRPFQD | 0.27 ± 0.082
KPGPLPPNLDWLKVSELRQQLRIRGLPVSGTKTALMDRLRPFQD | -0.441 ± 0.093
KPGPLPPNLDKLKVSELRQQLRIRGLPVSGTKTALMDRLRPFQD | 0.083 ± 0.066
KPGPLPPNLDCLKVSELRQQLRIRGLPVSGTKTALMDRLRPFQD | -0.272 ± 0.26
KPGPLPPNLDALKVSELRQQLRIRGLPVSGTKTALMDRLRPFQD | 0.085 ± 0.063
KPGPLPPNLDPLKVSELRQQLRIRGLPVSGTKTALMDRLRPFQD | -0.714 ± 0.11
KPGPLPPNLDGLKVSELRQQLRIRGLPVSGTKTALMDRLRPFQD | -0.074 ± 0.055
KPGPLPPNLDRLKVSELRQQLRIRGLPVSGTKTALMDRLRPFQD | -0.135 ± 0.057
KPGPLPPNLDQLKVSELRQQLRIRGLPVSGTKTALMDRLRPFQD | -0.007 ± 0.075
KPGPLPPNLDMLKVSELRQQLRIRGLPVSGTKTALMDRLRPFQD | 0.063 ± 0.11

Variant | abundance fitness
KPGPLPSNLDDLKVSELRQQLRIRGLPVSGTKTALMDRLRPFQD | -0.009 ± 0.087
KPGPLPKNLDDLKVSELRQQLRIRGLPVSGTKTALMDRLRPFQD | 0.464 ± 0.083
KPGPLPWNLDDLKVSELRQQLRIRGLPVSGTKTALMDRLRPFQD | -0.414 ± 0.11
KPGPLPHNLDDLKVSELRQQLRIRGLPVSGTKTALMDRLRPFQD | 0.188 ± 0.091
KPGPLPANLDDLKVSELRQQLRIRGLPVSGTKTALMDRLRPFQD | 0.12 ± 0.081
KPGPLPDNLDDLKVSELRQQLRIRGLPVSGTKTALMDRLRPFQD | 0.052 ± 0.13
KPGPLPQNLDDLKVSELRQQLRIRGLPVSGTKTALMDRLRPFQD | 0.266 ± 0.073
KPGPLPNNLDDLKVSELRQQLRIRGLPVSGTKTALMDRLRPFQD | 0.346 ± 0.14
KPGPLPMNLDDLKVSELRQQLRIRGLPVSGTKTALMDRLRPFQD | 0.239 ± 0.14
KPGPLPGNLDDLKVSELRQQLRIRGLPVSGTKTALMDRLRPFQD | 0.142 ± 0.057
KPGPLPVNLDDLKVSELRQQLRIRGLPVSGTKTALMDRLRPFQD | 0.227 ± 0.066
KPGPLPTNLDDLKVSELRQQLRIRGLPVSGTKTALMDRLRPFQD | 0.018 ± 0.15
KPGPLPLNLDDLKVSELRQQLRIRGLPVSGTKTALMDRLRPFQD | -0.001 ± 0.07
KPGPLPENLDDLKVSELRQQLRIRGLPVSGTKTALMDRLRPFQD | 0.253 ± 0.071
KPGPLPINLDDLKVSELRQQLRIRGLPVSGTKTALMDRLRPFQD | 0.107 ± 0.16
KPGPLPYNLDDLKVSELRQQLRIRGLPVSGTKTALMDRLRPFQD | -0.085 ± 0.31
KPGPLPPNLCDLKVSELRQQLRIRGLPVSGTKTALMDRLRPFQD | 0.245 ± 0.099
KPGPLPPNLQDLKVSELRQQLRIRGLPVSGTKTALMDRLRPFQD | -0.163 ± 0.14
